Data on 1 substance can be found in PMC4471349.

The target of this test is pVP28-Agα1p displayed on the cell surface of P. pastoris (white spot syndrome virus (WSSV)). As to the kind of experiment: yeast agglutination; two yeast clones mixed in PBS with 1% BSA at initial OD600 = 0.7, left to stand 1 h; percent agglutination from the fall in OD600; cells induced with methanol 24-96 h.

In the case of “mPmRab7-Agα1p displayed on the cell surface of P. pastoris (domain or fragment)”, the percent agglutination (48 h induction) came out at 38% and the percent agglutination (longer induction times) turned out to be 20%.
